We go through four molecules from US11827701B2, “IL-6 binding molecules” (argenx BV, priority 2012, dated 2023).

For series [1], the target named is T1, eukaryotically produced human IL-6 (Homo sapiens, UniProt P05231).
T1 construct: purchased Humanzyme HZ-1044; host or cells: Human Embryonic kidney cells
Nature of the series: Surface plasmon resonance (Biacore), eukaryotically produced human IL-6 coated on CM5 chip. It counts as binding. To be noted: for RANKED euk (off-rate): 24D10 chain-shuffled Fabs; for Average binding: average over the IL-6 forms. For orientation: SPR reads the build-up and loss of mass on a sensor chip optically.

For series [2], the target named is T2, bacterially produced human IL-6 (Homo sapiens, UniProt P05231).
T2 construct: His
Nature of the series: Surface plasmon resonance (Biacore), bacterially produced human IL-6 coated on CM5 chip. The settings on record: for Bact (off-rate): 24D10 chain-shuffled Fabs. It counts as binding.

Series [3] has as its system IL-6. The experiment in a line: Serum amyloid A (SAA) mouse model, induction by injected IL-6. The settings on record: for SAA, Mouse1 / SAA, Mouse2 / SAA, Mouse3 / SAA, Mouse4 / SAA, Mouse5 / SAA, Mouse6 / SAA, Mean: 0.1 μg IL-6; for SAA, Mean: mean of 6 mice. It counts as in vivo. On the set-up: SAA, Mean / SAA, Mouse1 / SAA, Mouse2 / SAA, Mouse3 / SAA, Mouse4 / SAA, Mouse5 / SAA, Mouse6: unit not given here. The protocol: The in vivo efficacy of clones 68F2 and 61H7 was further investigated by measuring the ability of these antibodies to block serum amyloid A (SAA) induction in response to injected IL-6. General methods for performing this assay are set forth in WO2006/119115A2, which is hereby incorporated by reference in its entirety. […] Four hours after administration of the antibody, the mice were injected with 0.1 ug of IL-6. After a further 16 hours, blood was taken from the mice and the concentration of Serum Amyloid A was determined by ELISA. The dose responses are also graphically depicted in FIG. 13.

In series [4] the target is T3, cynomolgus monkey IL-6 (Macaca fascicularis, UniProt P79341).
T3 construct: His
The experiment in a line: Surface plasmon resonance (Biacore), cynomolgus monkey IL-6. It counts as binding. The settings on record: periplasmic fractions, 24D10 chain-shuffled Fabs.

Series [5] has as its system IGROV-1 epithelial cells. Nature of the series: Epithelial ovarian cancer mouse xenograft (survival). Type of series: in vivo. The settings on record: 4 or 20 mg/kg biweekly, nude mice. The protocol: The in vivo potency of clone 129D3 was determined using a mouse xenogaft model. IGROV-1 epithelial cells (5×10^6) were injected subcutaneously into nude mice. After three days, mice were administered 129D3 or CNTO328 biweekly, at a dosage of 4 or 20 mg/kg. There were 5 mice per group and 10 mice in the control group. Percentage survival of mice in each study group was determined each week and the results plotted as a survival curve.

Series [6] in a line: Thermal stability (melting temperature), functional antibody measured in Biacore. It counts as physicochemical. The protocol:
To examine the thermal stability of the germlined and the parental versions of 68F2 in full length human IgG1 format, antibody samples were incubated at a concentration of 100 μg/ml (in PBS) at 4, 50, 55, 60, 65, 70 and 75° C. for 1 hour. Following this, the samples were cooled down slowly during a period of 15 minutes to 25° C. and kept at this temperature for 2 hours, after which they were stored overnight at 4° C. Following centrifugation to remove precipitates (of denatured antibody), the concentration of functional antibody remaining in solution was measured using Biacore (1/10 dilution in PBS and 1/10 in HBSEP). The slope of the association curve obtained after injection on the IL-6 immobilized chip is a measure of the concentration of functional antibody.

The nature of series [7]: Pharmacokinetic study, single intravenous dose. It counts as in vivo, cynomolgus monkey. The protocol: Pharmacokinetic analysis of antibody clone 129D3 formatted as various IgG1 molecules was performed. The following antibodies were analysed: Wild-type IgG1 129D3 (129D3-WT), IgG1 129D3 with the mutations M252Y/S254T/T256E in the Fc region (129D3-YTE), and IgG1 129D3 with the mutations H433K and N434F in the Fc region (129D3-HN).
Cynomolgus monkeys (3 per antibody tested) were injected intravenously with a single 5 mg/kg dose of 129D3-WT, 129D3-YTE, or 129D3-HN. Samples were taken at different time points and tested for plasma concentration of mAb by the ELISA. Specifically, a microtiterplate (Maxisorb Nunc) was coated with 1 ug/ml IL-6 (Immunotools) in PBS overnight at 4C. The plate was washed 2 times with PBS-Tween and blocked for 2 hours with 300 μl PBS-1% casein. After 2 washes with PBS-Tween, the samples were applied. All dilutions were made in 1% pooled blank plasma (this is a pool from 3 naive cynomolgus monkeys, see chapter 4.2). The samples were allowed to bind for 2 hours at RT. Plates were then washed 5 times with PBS-Tween and goat biotinilated anti-human IgG heavy and light chain monkey adsorbed polyclonal antibodies were applied at a 1000-fold dilution (Bethyl, catno: A80-319B) and allowed to bind for 1 hour at RT. After washing the plates 5 times with PBS-Tween, streptavidin conjugated with HRP (Jackson Immunoresearch 016-030-084) was applied at a 300,000-fold dilution and allowed to bind for 1 hour at RT. Plates were then washed 5 times with PBS-Tween and a 1:1 mixture of TMB (calbiochem CL07)-s(HS)TMB weakener (SDT, #sTMB-W) was added. The staining was allowed to proceed for 10 minutes and then stopped with 0.5 M […], after which the Optical Density was measured at 450 nm. The samples were analysed four times and 129D3-WT (from the same batch that was injected into the animals) was used for a standard curve.
The pharmacokinetic profiles for the different 129D3 IgG1 antibodies are shown graphically in FIG. 12 (the results are shown are the average result of the group of monkeys).

Series [8] concerns RXF393 cells. Nature of the series: Renal cell cancer mouse xenograft model. It counts as in vivo. To be noted: 3 mg/kg. The protocol: The in vivo efficacy of clones 68F2 was investigated in a renal cell cancer mouse xenograft model. […] Briefly, RXF393 cells (2×10^6) were injected subcutaneously at both lateral sides of a nude mouse. Tumors were allowed to grow to a volume between of 50 en 300 mm^3, prior to antibody administration. 90% of the injected mice developed a tumor. 40 mice were split into 5 groups of 8 mice. Each group was received intraperatoneal injection of either PBS (control) or a specific dose of clone 68F2 (1, 3, 10, or 30 mg/kg). Tumor size and survival was monitored twice per week.

Series [9] in a line: Production level of IgG1 after transient expression in HEK293E cells. To be noted: IgG1, protein A purified. The protocol: The VH and VL of the germlined versions of 68F2 were recloned in pUPE Heavy Chain and Light Chain expression vectors, respectively, for transient expression of full-length IgG1 antibodies. After transient expression in HEK293E cells, IgG1 antibodies were purified with protein A and quantified by measurement of OD280. Table 19 below summarizes the production levels of the germlined derivatives together with the levels of the 68F2 parental antibody. Potencies (in pM) were also measured in a 7TD1 based proliferation assay for each antibody.

The target of series [10] is T3, cynomolgus monkey IL-6. Nature of the series: Surface plasmon resonance (Biacore), cynomolgus monkey IL-6. The settings on record: cy/cyno; periplasmic fractions, 29B11 chain shuffled. It counts as binding.
[11] abbreviates: Euk IL-6, purified 24D10 chain-shuffled Fabs.
Setting [12] is: Bact, purified 24D10 chain-shuffled Fabs.
The mark [13] stands for this setting: single intravenous administration, cynomolgus monkey, non-compartmental.
Where [14] appears, read: euk, periplasmic fractions, 29B11 chain shuffled.
Where [15] appears, read: bact, periplasmic fractions, 29B11 chain shuffled.

Values joined by “and” are separate entries in the source; they are usually repeats but may differ in a detail not shown here. Equal values may be shown once.

T3 sequence (P79341 28-212): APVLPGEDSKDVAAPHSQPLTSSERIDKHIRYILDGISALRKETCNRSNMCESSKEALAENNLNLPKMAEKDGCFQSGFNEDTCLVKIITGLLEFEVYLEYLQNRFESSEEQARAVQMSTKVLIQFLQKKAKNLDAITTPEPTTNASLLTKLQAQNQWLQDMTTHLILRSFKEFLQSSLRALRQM
T1 sequence (P05231 30-212): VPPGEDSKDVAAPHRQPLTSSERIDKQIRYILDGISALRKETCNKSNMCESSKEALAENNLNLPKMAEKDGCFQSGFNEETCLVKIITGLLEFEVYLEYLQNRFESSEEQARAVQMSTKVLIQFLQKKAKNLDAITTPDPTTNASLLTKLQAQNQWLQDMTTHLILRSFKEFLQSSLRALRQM
T2 sequence (P05231 30-212): as above

B1: 61H7: anti-IL-6 clone from VH chain shuffling of 24D10; Fab and IgG formats (antibody, V domains shown)
VH: EVQLVESGGGLVQPGGSLRLSCAASGFTFSSYRMYWVRQPPGKGLEWVSAISAGGGSTYYGDSVKGRFTISRDNAKNTVYLQMNSLKPEDTAVYYCANRAGWGMGDYWGQGTQVTVSS
VL: QTVVTQEPSLSVSPGGTVTLTCGLSSGSVTASNYPGWFQQTPGQAPRALIYSTNDRHSGVPSRFSGSISGNKAALTITGAQPEDEADYYCALDIGDITEFGGGTHLTVLG
In series [1] (setting [11]), B1 gave a ka of 120000 M⁻¹ s⁻¹ and a kd of 5.5e-05 s⁻¹. This molecule yielded a binding in series [1] (periplasmic fractions ('pur' = purified Fab), IL-6 form not stated) of 176. In addition, in series [1] (periplasmic fractions), the “RANKED euk (off-rate)” value was determined as 9.32E−05 and the Average binding was determined as 635 RU. In [2] (setting [12]), this molecule came in with a ka of 120000 M⁻¹ s⁻¹ and a kd of 2e-06 s⁻¹. In addition, the “Bact (off-rate)” value in series [2] (periplasmic fractions) is 7.54E−05. In series [3] (Ab dose/mouse 0.31 μg), the “SAA, Mouse1” value was determined as 184; the “SAA, Mouse2” value is reported as 148; the “SAA, Mouse3” value was determined as 124; the “SAA, Mouse4” value turned out to be 140. In [3] (Ab dose/mouse 0.31 μg), the “SAA, Mouse5” value was 133; the “SAA, Mouse6” value is on record as 76; the “SAA, Mean” value is given as 134.2. In series [3] (Ab dose/mouse 1.25 μg), the “SAA, Mouse1” value was found to be 66; the “SAA, Mouse2” value turned out to be 29; the “SAA, Mouse3” value is 33; the “SAA, Mouse4” value was determined as 30. In [3] (Ab dose/mouse 1.25 μg), the “SAA, Mouse5” value came to 24; the “SAA, Mouse6” value stood at 35; the “SAA, Mean” value was 36.2. Besides, in series [3] (Ab dose/mouse 5 μg), the “SAA, Mouse1” value came out at 47; the “SAA, Mouse2” value was 62; the “SAA, Mouse3” value worked out at 47; the “SAA, Mouse4” value is 40. In series [3] (Ab dose/mouse 5 μg), the “SAA, Mouse5” value came to 46; the “SAA, Mouse6” value is 47; the “SAA, Mean” value is listed as 48.2. In [3] (Balb/c mice, i.v., 0.1 ug IL-6), the “in vivo efficacy (block of SAA induction)” value was “in vivo efficacy at least equal to the high potency benchmark controls GL18 and CNTO136”. In addition, in series [4], the “cyno (off-rate)” value was 9.45E−05.

B2: 129D3: final germlined variant of 68F2; 129D3-WT is wild-type IgG1 129D3 (antibody, listed as Lama glama, V domains shown)
VH: EVQLQESGPGLVKPSQTLSLTCTVSGGSITSRYYAWSWIRQPPGKGLEWIGVIDYDGDTYYSPSLKSRVSISWDTSKNQFSLKLSSVTPADTAVYYCARDPDVVTGFHYDYWGQGTMVTVSS
VL: QSALTQPPSVSGTPGQSVTISCAGANNDIGTYAYVSWYQQLPGTAPKLMIYKVTTRASGIPDRFSGSKSGNTASLTISGLQAEDEADYYCASYRNFNNAVFGTGTKLTVL
modifications: IgG1 constant regions
notes: final germlined variant of 68F2; 129D3-WT is wild-type IgG1 129D3
Take B2: the “in vivo potency (survival)” value in series [5] was “superior to the benchmark CNTO328 IL-6 antibody”. Besides, the “Tm higher than the parental 68F2 antibody” value in series [6] (human IgG1) worked out at 3 °C. Also, in [6] (human IgG1, 100 μg/ml in PBS, 1 hour), the Tm result was “around 70 °C”. Besides, the half-life result in [7] (5 mg/kg i.v.) is reported as “about 15.6 days”. In series [7] (setting [13]), the “MRT (Mean Residence Time)” value came to 22.4 days, the “T½ (elimination half-life)” value came out at 15.6 days and the “k (mean elimination rate constant)” value was determined as 0.0468 day⁻¹. Further, in [8], the “survival relative to control” value is on record as “effective at delaying death of mice relative to control” and the tumor outgrowth result is “effective at inhibiting tumor outgrowth”.

B3: 129F2: germlined variant of 68F2, IgG1 (antibody, listed as Lama glama, V domains shown)
VH: EVQLQESGPGLVKPSQTLSLTCTVSGGSITSRYYAWSWIRQPPGKGLEWIGVIDYDGDTYYSPSLKSRVTISWDTSKNQFSLKLSSVTAEDTAVYYCARDPDVVTGFHYDYWGQGTMVTVSS
VL: QSALTQPPSVSGTPGQTVTISCAGANNDIGTYAYVSWYQQLPGTAPKLMIYKVTTRASGIPDRFSGSKSGNTASLTISGLQSEDEADYYCASYRNFNNAVFGGGTKLTVL
modifications: IgG1 constant regions
notes: germlined variant of 68F2, IgG1
Consider B3, for which the “production level / production yield” value in series [9] came to 9 µg/mL.

B4: 55H1c: 29B11 chain shuffled Fab, periplasmic fraction (antibody, V domains shown)
VH: EVQLVESGGGLVQPGGSLRLSCAASGFTFSSYAMSWVRQAPGKGLEWVSRISSGGISTYYADSVKGRFTISRDNAKNTLYLQMNSLKPEDTAVYYCVRYAWGVQWAFDFWGQGTQVTVSS
VL: AQSVVTQPPSVSGSPGKTVTISCAGTSSDVGYGNYVSWYQQLPGMAPKLLIYDVSKRASGIADRFSGSKSGNTASLTISGLQSEDEADYVCASYRRGGTAVFGGGTHLTVLG
In the case of B4, in series [1] (setting [14]), the KA is 1.02e+10 M⁻¹, the ka was found to be 1.13e+06 M⁻¹ s⁻¹ and the kd is 0.000111 s⁻¹. Further, in [1] (periplasmic fractions), the “RANKED euk (off-rate)” value is 1.01E−04 and 1.06E−04 and 1.13E−04; the Average binding is 773 RU and 770 RU and 873 RU. In addition, in series [2] (setting [15]), the KA worked out at 1e+10 M⁻¹, the ka was determined as 1.28e+06 M⁻¹ s⁻¹ and the kd came out at 0.000127 s⁻¹. Also, the “Bact (off-rate)” value in series [2] (periplasmic fractions) is 1.35E−04 and 1.40E−04 and 1.26E−04. For the same molecule, in series [10], the KA was 1.89e+09 M⁻¹, the ka worked out at 1.16e+06 M⁻¹ s⁻¹ and the kd was found to be 0.000615 s⁻¹. Further, the “cyno (off-rate)” value in [4] is 4.17E−04 and 4.30E−04 and 3.90E−04.
